Test results from US20190127444A1 (NEW YORK UNIVERSITY, published 2019).

Key:
[1] = molecular target: T1, LukAB toxoid variant (LukA E323A), recombinant polyhistidine-tagged (S. aureus, UniProt Q2FFA2 28-351; P21224 30-338); assay: SPR (Biacore T200), single cycle kinetics, 1:1 model
T1 sequence 1: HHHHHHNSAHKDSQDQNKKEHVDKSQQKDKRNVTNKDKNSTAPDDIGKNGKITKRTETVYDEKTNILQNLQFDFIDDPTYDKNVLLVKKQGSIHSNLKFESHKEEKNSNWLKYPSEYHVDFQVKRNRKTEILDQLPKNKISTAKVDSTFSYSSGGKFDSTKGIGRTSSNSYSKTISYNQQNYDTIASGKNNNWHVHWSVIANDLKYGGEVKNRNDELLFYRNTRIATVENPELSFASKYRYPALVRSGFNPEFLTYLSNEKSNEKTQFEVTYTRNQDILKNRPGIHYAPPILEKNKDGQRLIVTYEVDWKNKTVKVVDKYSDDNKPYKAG
T1 sequence 2: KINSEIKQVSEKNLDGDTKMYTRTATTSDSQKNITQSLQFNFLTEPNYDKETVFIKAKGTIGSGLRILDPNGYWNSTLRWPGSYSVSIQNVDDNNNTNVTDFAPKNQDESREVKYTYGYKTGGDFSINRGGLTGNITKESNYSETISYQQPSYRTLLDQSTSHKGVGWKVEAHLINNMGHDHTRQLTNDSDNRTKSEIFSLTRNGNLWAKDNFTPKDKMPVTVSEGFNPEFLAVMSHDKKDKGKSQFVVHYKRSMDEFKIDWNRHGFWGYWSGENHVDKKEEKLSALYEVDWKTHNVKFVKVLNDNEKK

[2] = molecular target: T1, LukAB toxoid variant (LukA E323A), …; assay: SPR (Biacore T200)
[3] = molecular target: T1, LukAB toxoid variant (LukA E323A), …; assay: ELISA and neutralisation assay
[4] = molecular target: T2, LukE, recombinant protein used for HDX mapping (Staphylococcus aureus, UniProt Q2FXB0 24-306); assay: HDX-MS
T2 construct: also called LukE (HDX)
T2 chain: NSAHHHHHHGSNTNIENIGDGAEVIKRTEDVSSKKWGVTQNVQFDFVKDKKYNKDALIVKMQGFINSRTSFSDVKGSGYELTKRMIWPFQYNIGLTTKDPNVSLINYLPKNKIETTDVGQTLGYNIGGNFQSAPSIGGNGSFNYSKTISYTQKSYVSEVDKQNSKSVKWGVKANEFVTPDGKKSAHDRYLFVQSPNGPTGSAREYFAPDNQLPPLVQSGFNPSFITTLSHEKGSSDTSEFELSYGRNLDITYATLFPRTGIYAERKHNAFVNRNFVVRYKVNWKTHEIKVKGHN

[5] = molecular target: T3, LukE, recombinant parental form with amino-terminal poly-histidine and streptavidin binding sequences (S. aureus); assay: BLI, biotinylated LukE on streptavidin pins, Luk26 FN3 at 10 ug/mL
T3 chain: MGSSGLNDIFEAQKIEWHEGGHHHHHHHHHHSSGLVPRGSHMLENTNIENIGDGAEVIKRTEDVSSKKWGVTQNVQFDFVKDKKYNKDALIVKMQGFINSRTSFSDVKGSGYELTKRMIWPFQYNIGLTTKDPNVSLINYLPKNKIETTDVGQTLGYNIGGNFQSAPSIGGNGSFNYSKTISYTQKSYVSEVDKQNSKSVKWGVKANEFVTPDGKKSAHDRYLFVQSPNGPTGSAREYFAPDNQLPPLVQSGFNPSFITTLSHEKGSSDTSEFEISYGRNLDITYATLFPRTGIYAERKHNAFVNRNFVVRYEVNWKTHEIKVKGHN

[6] = molecular target: T4, recombinant Protein A (ProSpec-TanyTechnoGene Ltd.), biotinylated (S. aureus, UniProt P38507 37-327); assay: ELISA, biotinylated Protein A on streptavidin plate
T4 construct: also called SpA

[7] = molecular target: T1, LukAB toxoid variant (LukA E323A), …; assay: BLI, FN3 protein on streptavidin pins, LukAB in solution
[8] = molecular target: TD peptide; assay: ELISA, peptide captured on streptavidin

B1: mAb 5133 PRASA A6 HC-L4-E-L4-AB (Table 1 Construct 11) (bispecific antibody)
heavy: EVQLVETGGGLVKPGGSLRLSCSASRFSFRDYYMTWIRQAPGKGPEWVSHISGSGSTIYYADSVRGRFTISRDNAKSSLYLQMDSLQADDTAVYYCARGGRATSYYWVHWGPGTLVTVSSASTKGPSVFPLAPSSKSTSGGTAALGCLVKDYFPEPVTVSWNSGALTSGVHTFPAVLQSSGLYSLSSVVTVPSSSLGTQTYICNVNHKPSNTKVDKKVEPKSCDKTHTCPPCPAPPVAGPDVFLFPPKPKDTLMISRTPEVTCVVVDVSHEDPEVKFNWYVDGVEVHNAKTKPREEQYNSTYRVVSVLTVLHQDWLNGKEYKCKVSNAALPAPIAKTISKAKGQPREPQVYTLPPSRDELTKNQVSLTCLVKGFYPSDIAVEWESNGQPENNYKTTPPVLDSDGSFFLYSKLTVDKSRWQQGNVFSCSVMHEALHNRFTQKSLSLSPGKGGGGSGGGGSGGGGSGGGGSMLPAPKNLVVSRVTEDSARLSWTAPDAAFDSFHIEYAEPWVWGEAIVLTVPGSERSYDLTGLKPGTEYVVFIGGVKGGHNSTPLSAIFTTGGGGSGGGGSGGGGSGGGGSMLPAPKNLVVSRVTEDSARLSWTAPDAAFDSFWITYEEKFYRGEAIVLTVPGSERSYDLTGLKPGTEYKVWIVGVKGGQGSWPLSAIFTT
light: EIVLTQSPATLSLSPGERATLSCRASQSVSGYLGWYQQKPGQAPRLLIYGASSRATGIPDRFSGSGSGTDFTLTISRLEPEDFAVYYCQQYGSSPLTFGGGTKLEIKRTVAAPSVFIFPPSDEQLKSGTASVVCLLNNFYPREAKVQWKVDNALQSGNSQESVTEQDSKDSTYSLSSTLTLSKADYEKHKVYACEVTHQGLSSPVTKSFNRGEC
notes: also called CR5133 PRASA A6 HC-L4-E-L4-AB; 4×4 variant
**Q.** How did the Kd [1] turn out when B1 was run?
**A.** 0.012 nM

**Q.** What about the “fold higher binding affinity than Construct 6” value [2] of the same binder?
**A.** ~6 fold

B2: Luk17 LukAB binding FN3 domain (designed binder)
chain: LPAPKNLVVSRVTEDSARLSWTAPDAAFDSFWITYEEKFYRGEAIVLTVPGSERSYDLTGLKPGTEYKVWIVGVKGGQGSWPLSAIFTT
**Q.** Does B2 bind [3]?
**A.** binds

B3: Luk26 LukE binding FN3 domain (designed binder)
chain: LPAPKNLVVSRVTEDSARLSWTAPDAAFDSFHIEYAEPWVWGEAIVLTVPGSERSYDLTGLKPGTEYVVFIGGVKGGHNSTPLSAIFTT
**Q.** Does B3 bind [4]?
**A.** binds

B4: Luk26 FN3 protein with carboxyl-terminal poly-histidine sequence (designed binder)
chain: MLPAPKNLVVSRVTEDSARLSWTAPDAAFDSFHIEYAEPWVWGEAIVLTVPGSERSYDLTGLKPGTEYVVFIGGVKGGHNSTPLSAIFTTGGHHHHHH
**Q.** Does B4 bind [5]?
**A.** binds

B5: anti-LTA (Pagibaximab) PRASA A6 (Table 1 Construct 33) (antibody, human IgG1, kappa)
heavy: EVMLVESGGGLVQPKGSLKLSCAASGFTFNNYAMNWVRQAPGKGLEWVARIRSKSNNYATFYADSVKDRFTISRDDSQSMLYLQMNNLKTEDTAMYYCVRRGASGIDYAMDYWGQGTSLTVSSASTKGPSVFPLAPSSKSTSGGTAALGCLVKDYFPEPVTVSWNSGALTSGVHTFPAVLQSSGLYSLSSVVTVPSSSLGTQTYICNVNHKPSNTKVDKKVEPKSCDKTHTCPPCPAPPVAGPDVFLFPPKPKDTLMISRTPEVTCVVVDVSHEDPEVKFNWYVDGVEVHNAKTKPREEQYNSTYRVVSVLTVLHQDWLNGKEYKCKVSNAALPAPIAKTISKAKGQPREPQVYTLPPSRDELTKNQVSLTCLVKGFYPSDIAVEWESNGQPENNYKTTPPVLDSDGSFFLYSKLTVDKSRWQQGNVFSCSVMHEALHNRFTQKSLSLSPGK
light: DIVLSQSPAILSASPGEKVTMTCRASSSVNYMHWYQQKPGSSPKPWISATSNLASGVPARFSGSGSGTSYSLTISRVEAEDAATYYCQQWSSNPPTFGGGTMLEIKRTVAAPSVFIFPPSDEQLKSGTASVVCLLNNFYPREAKVQWKVDNALQSGNSQESVTEQDSKDSTYSLSSTLTLSKADYEKHKVYACEVTHQGLSSPVTKSFNRGEC
notes: also called LTA PRASA A6; PRASA A6 variant of pagibaximab
**Q.** Does B5 bind [6]?
**A.** no binding (tested: 10 µg/mL)

B6: TENCON-His-SA (designed binder)
chain: MLPAPKNLVVSRVTEDSARLSWTAPDAAFDSFLIQYQESEKVGEAIVLTVPGSERSYDLTGLKPGTEYTVSIYGVKGGHRSNPLSAIFTTGGHHHHHHGGGLNDIFEAQKIEWHE
notes: also called parental control FN3 domain protein
**Q.** Does B6 bind [7]?
**A.** no binding (tested: 10 ug/mL)

B7: mAb 5133 (CR5133, IgG1 wt; Table 1 Construct 1) (antibody)
heavy: not shown
light: B1 light
**Q.** Does B7 bind [8]?
**A.** no binding
